From US20180002381A1
pKd: −log10 of the molar value.

Tests used:
[1] = target: Coiled coil domain of Atg4L (Atg14L coiled coil) (Mus musculus (Mouse)) (UniProt Q8CDJ3); test: ITC
[2] = target: Coiled coil domain of UVRAG (228-276) (Mus musculus) (UniProt Q8K245); test: ITC
Sequence of Coiled coil domain of UVRAG (228-276) (Mus musculus) (Q8K245 other isoform, or with tags, fused parts or gaps limits assumed): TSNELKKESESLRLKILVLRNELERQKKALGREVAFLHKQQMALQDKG

Sequence of Coiled coil domain of Atg4L (Atg14L coiled coil) (Mus musculus (Mouse)) (Q8CDJ3 other isoform, or with tags, fused parts or gaps limits assumed): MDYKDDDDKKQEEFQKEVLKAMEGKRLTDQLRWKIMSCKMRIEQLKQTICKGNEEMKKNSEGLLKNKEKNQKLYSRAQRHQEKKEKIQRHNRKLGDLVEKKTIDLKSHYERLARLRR

pKd [1]: 6.30
pKd [2]: 8.00
fold stronger than wild-type Beclin1 [2]: 20 times
Substance: Beclin1 mutant L241E/L245E (from UniProt Q91XJ1 174-266)
